Measured values published in patent publication US11175293 (UNIVERSITY OF UTAH RESEARCH FOUNDATION, dated 2021).

Target: T1, NanoSpike
T1 construct: also called IH4vs2-Spike
Assay: flow cytometry on human whole blood, detected with FITC-conjugated anti-Strep-tag antibodies

B1: Glycophorin A (GYPA) on the surface of human red blood cells (other)
chain: LSTTEVAMHTSTSSSVTKSYISSQTNDTHKRDTYAATPRAHEVSEISVRTVYPPEEETGERVQLAHHFSEPEITLIIFGVMAGVIGTILLISYGIRRLIKKSPSDVKPLPSPDTDVPLSSVEIENPETSDQ
notes: whole, on cells; also called GPA; RBC
binding result: binds
